This passage reports occupancy (TraN molecules for each OmpK36 trimer) (molecule for each OmpK36 trimer) and stoichiometry N results from publication PMC9246713.

The assay concerns the target OmpK36WT (wild type OmpK36 porin trimer of K. pneumoniae ATCC 43816) (Klebsiella pneumoniae). The experiment in a line: cryo-EM structure; OmpK36-TraN sample 0.33 mg ml^-1 diluted 1:6 in buffer A (50 mM NaCl, 10 mM HEPES pH 7.0, 0.03% DDM); graphene oxide-coated grids; Titan Krios 300 keV; 2.6 Å.

Consider “TraN from the plasmid pKpQIL (mature TraN, D28 to Q651) (natural protein)”, for which the occupancy (TraN molecules for each OmpK36 trimer) (molecule for each OmpK36 trimer) was less than 1.
Broadly, the stoichiometry N is the number of molecules, sites or subunits per partner or assembly. In turn, “OmpK36WT (wild type OmpK36 porin trimer of K. pneumoniae ATCC 43816) (natural protein)” returned a stoichiometry N of 3.
